This note sets out measurements from publication PMC11338361.

For the experiment, the target named is HA-DGAT2 (hemagglutinin-tagged tung tree DGAT2) (Vernicia fordii (tung tree)) (UniProt Q0QJH9). The experiment can be described thus: SDS-PAGE and immunoblotting of microsomal membranes. A general note: A western blot detects proteins with antibodies after separation by electrophoresis.

The term stoichiometry N denotes a count of units in the complex or per binding partner. With “HA-DGAT2 (hemagglutinin-tagged tung tree DGAT2) (from UniProt Q0QJH9 2-322) (enzyme)”, the stoichiometry N was found to be 2.
